# Reference: patent US20220169677A1 (INSERM INSTITUT NATIONAL DE LA SANTE ET DE LA RECHERCHE …, published 2022)
# T1: recombinant human NRP-1 (human, UniProt O14786-2 22-644, limits assumed)
# T1 construct: Coated on a 96-well plate at 200 ng/well; GenBank AAC51759.1 is printed only as the preferred definition of NRP-1; also called Neuropilin-1
# T1 sequence (looked up): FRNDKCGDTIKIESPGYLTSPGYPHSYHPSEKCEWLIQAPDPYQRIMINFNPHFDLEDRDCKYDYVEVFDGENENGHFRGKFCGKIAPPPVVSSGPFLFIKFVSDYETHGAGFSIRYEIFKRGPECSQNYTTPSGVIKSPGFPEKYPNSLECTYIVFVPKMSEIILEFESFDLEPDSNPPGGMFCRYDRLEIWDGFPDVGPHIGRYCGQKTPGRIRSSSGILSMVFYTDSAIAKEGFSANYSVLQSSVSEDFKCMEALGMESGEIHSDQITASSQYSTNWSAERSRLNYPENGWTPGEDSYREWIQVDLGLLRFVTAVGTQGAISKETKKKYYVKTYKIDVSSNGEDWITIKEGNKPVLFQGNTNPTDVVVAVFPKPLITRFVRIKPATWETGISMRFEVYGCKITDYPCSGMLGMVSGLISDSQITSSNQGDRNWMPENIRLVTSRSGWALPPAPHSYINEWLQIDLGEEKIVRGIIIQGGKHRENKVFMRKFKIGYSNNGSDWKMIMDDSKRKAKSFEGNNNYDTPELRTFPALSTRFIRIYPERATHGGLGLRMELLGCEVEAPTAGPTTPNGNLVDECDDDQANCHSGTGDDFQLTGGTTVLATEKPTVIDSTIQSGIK
# Target: T1, recombinant human NRP-1
# Assay: competition: inhibition of (bt)-VEGF-A165 binding to coated NRP-1
row,IC50,Molecule
1,80000 nM,LPPR (Parent tetrapeptide without Cys; 3) [LPPR (active part of A7R)]
2,4500 nM,KPRR (Parent tetrapeptide without Cys; 5) [KPRR (peptide derived from the VEGF-A165)]

# Target: T1, recombinant human NRP-1
# Assay: chemiluminescence competition: inhibition of (bt)-VEGF-A165 binding to coated NRP-1
# Procedure: The flat bottom surface of a 96-well plate was coated with 100 μL (200 ng/well) recombinant human NRP-1 and incubated overnight at 4° C. Non-specific binding was blocked by the incubation with 0.5% BSA in PBS. 50 μL of peptide dissolved in PBS in range concentrations and 50 μL (400 ng/mL) of human (bt)-VEGF-A₁₆₅ in PBS containing 4 μg/mL of heparin were added respectively. After 2 h incubation at room temperature the plate was washed and treated with streptavidin-horseradish peroxidase conjugate in PBS (1:8000). Chemiluminescence was quantified immediately after addition of 100 μL Chemiluminescent substrate. In a positive control only (bt)-VEGF-A₁₆₅ was present in wells, while, in negative control, wells were not coated by NRP-1. Percentages of inhibition were calculated by the following formula: […]
IC50,fold decrease in IC50 against the sequence without cysteine,Molecule
50 nM,100 fold,H-Cys-Lys(hArg)-Dab-Oic-Arg-OH (peptide)
60 nM,100 fold,H-Lys(Cys-hArg)-Dab-ΔPro-Arg-OH (peptide)

# The remaining lines, values behind:
Molecule,IC50,fold decrease in IC50 against the sequence without cysteine
H-Cys-Lys(hArg)-Dab-ΔPro-Arg-OH (peptide),70 nM,100 fold
H-Lys(Cys-hArg)-Dab-Oic-Arg-OH (peptide),40 nM,100 fold
H-CTKPR-OH (TKPR (tuftsin) with an added N-terminal Cys; also called CTKPR) [H2N-Cys-Thr-Lys-Pro-Arg-OH],19000 nM,
H-CLPPR-OH (LPPR (active part of A7R) with an added N-terminal Cys; also called CLPPR) [H2N-Cys-Leu-Pro-Pro-Arg-OH],17000 nM,
H-CKPRR-OH (KPRR (peptide derived from the VEGF-A165 C-terminus) with an added N-terminal Cys; also called CKPRR) [H2N-Cys-Lys-Pro-Arg-Arg-OH],100 nM,
